For two substances, Kd results are on record in PMC5650921.

For orientation: Kd means the constant that tells how readily two partners part at equilibrium.

Test [1] deals with EREG/sEGFR501 complex (human) (UniProt P00533). The experiment in a line: small-angle X-ray scattering.
Test [2] concerns the target sEGFR501 1-501 (Homo sapiens) (UniProt P00533). Particulars: cited from earlier work.

For “EREG/sEGFR501 complex (from UniProt P00533 25-525; O14944 56-116)”, the Kd in test [1] was above 200000 nM.

For the substance sEGFR501 1-501 (from UniProt P00533), the Kd in test [2] was 3000 nM.
